Test results: paper PMC11638003, “Plant phytochrome interactions decode light and temperature signals” (The Plant Cell, 2024)
No end group written: not given here.

Experiments:
Settings in all cases: both partners purified
[1] = molecular target: T1, Arabidopsis thaliana phytochrome B, N-terminal fragment encompassing the N-terminal extension (NTE) and the … (Arabidopsis thaliana, UniProt P14713 1-651, phycocyanobilin chromophore, covalently bound); experiment: FRET or BRET; as a5 (association and dissociation kinetics after a red-light pulse) at several temperatures up to 30 °C; values told for 30 °C or for 30 °C against 15 °C
T1 construct: Phytochrome B, Arabidopsis thaliana, GenBank CAA35222.1; N-terminal fragment with the NTE and the PCM (nPAS-GAF-PHY), lacking PAS1, PAS2 and the HKRD; source: E. coli LOBSTR, purified (Co2+-NTA IMAC, anion exchange); plasmid also encodes Synechocystis sp. heme oxygenase 1 and PcyA
T1 sequence (looked up): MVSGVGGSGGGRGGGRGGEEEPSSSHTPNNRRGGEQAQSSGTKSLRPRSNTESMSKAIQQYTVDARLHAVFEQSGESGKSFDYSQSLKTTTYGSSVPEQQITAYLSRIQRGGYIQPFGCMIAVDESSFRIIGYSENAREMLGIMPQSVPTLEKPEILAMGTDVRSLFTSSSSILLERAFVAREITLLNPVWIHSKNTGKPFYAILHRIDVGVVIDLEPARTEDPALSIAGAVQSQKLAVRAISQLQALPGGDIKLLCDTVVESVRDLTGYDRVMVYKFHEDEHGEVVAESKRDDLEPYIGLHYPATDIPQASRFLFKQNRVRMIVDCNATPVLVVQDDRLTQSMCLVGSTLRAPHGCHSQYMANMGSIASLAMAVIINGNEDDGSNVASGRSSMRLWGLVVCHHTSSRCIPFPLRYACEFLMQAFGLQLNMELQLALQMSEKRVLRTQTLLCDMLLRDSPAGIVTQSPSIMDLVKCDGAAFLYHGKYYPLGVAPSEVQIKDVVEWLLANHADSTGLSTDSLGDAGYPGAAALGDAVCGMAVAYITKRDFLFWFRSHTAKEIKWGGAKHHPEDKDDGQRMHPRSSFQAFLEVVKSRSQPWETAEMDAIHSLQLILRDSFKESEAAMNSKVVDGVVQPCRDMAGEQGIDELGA

[2] = molecular target: T1, Arabidopsis thaliana phytochrome B, …; experiment: FRET or BRET; equilibrium titration: 20 nM P6A-mScarlet-I with 0 to 2,000 nM AtPhyB PCM at 15 °C after red light (658 nm); 50 mM Tris/HCl pH 8.0, 20 mM NaCl, 100 μg/mL BSA; single-site binding isotherm
[3] = molecular target: T2, Arabidopsis thaliana phytochrome B residues 1 to 982, AtPhyB (1-982) (Arabidopsis thaliana, UniProt P14713 1-982, phycocyanobilin chromophore, covalently bound); experiment: FRET or BRET; association kinetics at 15 °C after a 0.5-s pulse of red light (658 nm, 69 mW cm^-2, optical shutter); 20 nM PIF-mScarlet-I variant with 500 to 2,000 nM AtPhyB PCM, or 30 nM P6A-mScarlet-I with 750 to 2,500 nM AtPhyB (1-982); 50 mM Tris/HCl pH 8.0, 20 mM NaCl; pseudo-first-order, linear fit of koFR against the AtPhyB concentration; kaFR corrected for the Pfr fraction; Kd calculated from kdFR and kaFR …
T2 construct: the oligomeric state is not measured directly here; also called AtPhyB982; source: E. coli LOBSTR, purified (Co2+-NTA IMAC, anion exchange); plasmid also encodes Synechocystis sp. heme oxygenase 1 and PcyA
T2 sequence (looked up): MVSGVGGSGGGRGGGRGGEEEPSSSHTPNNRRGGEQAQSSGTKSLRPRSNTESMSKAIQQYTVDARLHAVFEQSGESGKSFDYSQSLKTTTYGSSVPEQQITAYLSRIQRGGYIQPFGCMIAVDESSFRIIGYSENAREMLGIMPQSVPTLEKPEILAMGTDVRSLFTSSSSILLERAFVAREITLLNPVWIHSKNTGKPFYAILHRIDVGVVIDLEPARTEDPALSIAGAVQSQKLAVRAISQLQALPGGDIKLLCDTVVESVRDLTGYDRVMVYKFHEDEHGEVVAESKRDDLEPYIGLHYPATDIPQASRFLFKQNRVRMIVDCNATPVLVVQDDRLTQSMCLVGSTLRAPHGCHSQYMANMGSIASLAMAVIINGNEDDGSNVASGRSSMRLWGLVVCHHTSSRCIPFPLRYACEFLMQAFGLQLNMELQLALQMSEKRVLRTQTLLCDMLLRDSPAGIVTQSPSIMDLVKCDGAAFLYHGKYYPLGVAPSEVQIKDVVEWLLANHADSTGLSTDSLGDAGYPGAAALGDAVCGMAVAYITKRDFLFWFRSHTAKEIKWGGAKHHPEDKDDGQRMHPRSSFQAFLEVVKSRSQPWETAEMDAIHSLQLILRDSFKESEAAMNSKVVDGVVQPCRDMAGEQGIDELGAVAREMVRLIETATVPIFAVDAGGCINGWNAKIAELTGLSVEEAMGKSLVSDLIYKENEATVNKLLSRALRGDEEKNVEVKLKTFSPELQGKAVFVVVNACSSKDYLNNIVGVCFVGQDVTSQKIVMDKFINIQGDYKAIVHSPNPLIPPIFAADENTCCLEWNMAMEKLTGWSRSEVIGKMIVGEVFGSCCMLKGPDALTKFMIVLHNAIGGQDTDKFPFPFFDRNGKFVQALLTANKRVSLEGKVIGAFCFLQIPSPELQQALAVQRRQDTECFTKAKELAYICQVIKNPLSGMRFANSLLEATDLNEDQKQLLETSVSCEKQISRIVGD

[4] = molecular target: T1, Arabidopsis thaliana phytochrome B, …; experiment: as above
[5] = molecular target: T2, Arabidopsis thaliana phytochrome B …; experiment: as above; remark: listed apart in the source

B1: P6A-mScarlet-I (Arabidopsis PIF6 residues 14 to 53, APB.A portion, fused to mScarlet-I) (domain or fragment, Arabidopsis thaliana, UniProt Q8L5W7 14-53, looked up)
chain: DQEYMELVFENGQILAKGQRSNVSLHNQRTKSIMDLYEAE-{mScarlet‑I}
notes: mScarlet-I: GenBank APD76536; source: E. coli LOBSTR, purified (IMAC, SENP2 cleavage, second IMAC, optionally anion exchange); not shown: His6-SUMO, N-terminal, cleaved; mScarlet-I, C-terminal, kept
Kd [1]: ~900 nM | Kd [2]: 130 ± 80 nM | Kd [3]: 1400 nM | Kd [4]: 183 ± 48 nM | koff [4]: 0.11 s⁻¹ | kon [4]: 610000 M⁻¹ s⁻¹ | Kd [5]: 1050 ± 240 nM | koff [5]: 0.095 s⁻¹ | kon [5]: 90000 M⁻¹ s⁻¹
